The data set can be described thus: protein stability index of a GFP-peptide fusion (yeast GPS) (PSI 1-4); higher = more stable; sorted into four equal gates, so the index is relative within each strain. The essentials: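 For each peptide, the protein stability index sums the read frequency in every gate after multiplying it by the gate number. Read frequencies came from plasmids that were PCR-amplified from each gate and Illumina-sequenced, with reads assigned to strains by barcodes. The gates were four equal bins of GFP/Cherry fluorescence ratio applied to mid-log yeast in leucine-free medium carrying a pooled library of tiled 17-residue yeast protein peptides fused downstream of GFP on a Cherry-expressing plasmid.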

± gives the uncertainty stated by the source.

With KSWLNRLNNWLFGWNDL [YMR153W/NUP53], the protein stability index is, setting by setting: (doa10∆) 2.63 ± 0.057; (pdr5∆) 2.33 ± 0.045; (san1∆) 2.03 ± 0.065; (ubr1∆) 2.68 ± 0.04.
Taken in the same sequence, the figures for KSYYLNTVMLQGIFKNS [AAR2] were 1.34 ± 0.069, 1.26 ± 0.076, 2.14 ± 0.14 and 1.24 ± 0.054.
Taken in the same sequence, the figures for KTGITKKDEDEEADEDM [PRE9] were 3.37 ± 0.13, 3.7 ± 0.26, 3.5 ± 0.11 and 2.95 ± 0.23.
In the same order, the values of KTKEAVAALKAVGAHSD [RPL4A] are 3.47 ± 0.087, 3.51 ± 0.067, 3.08 ± 0.096 and 3.38 ± 0.062.
As for KTNEESAKMILLSDPTI [PRP8], the protein stability index stood at 2.77 ± 0.12 (doa10∆), 2.95 ± 0.16 (pdr5∆), 2.94 ± 0.1 (san1∆) and 2.92 ± 0.042 (ubr1∆).
On to KTPEEVEVYAKIFWERL [ISW2], for which the protein stability index came to 1.74 ± 0.081 (doa10∆), 2.91 ± 0.17 (pdr5∆), 3.03 ± 0.17 (san1∆) and 3.29 ± 0.085 (ubr1∆).
Take KTQQNEKSENGENDDDT [RPN3]: the protein stability index came out at 3.04 ± 0.19 (doa10∆), 3.41 ± 0.18 (pdr5∆), 2.92 ± 0.13 (san1∆) and 3.34 ± 0.11 (ubr1∆).
In the same order, the values of KTSNIESVPIYSIDEFF [BRR2] are 2.56 ± 0.062, 2.58 ± 0.067, 2.34 ± 0.045 and 2.13 ± 0.083.
In the same order, the values of KTTRLLLIIRSLKNTDA [YJL039C/NUP192] are 1.51 ± 0.056, 1.31 ± 0.053, 1.19 ± 0.12 and 1.11 ± 0.059.
As for KTYEPVLNEDDLAFGGE [RPN5], the protein stability index reads like this: (doa10∆) 3.27 ± 0.09; (pdr5∆) 3.1 ± 0.089; (san1∆) 3.29 ± 0.058; (ubr1∆) 3.51 ± 0.12.
In the same order, the values of KVAEVKKLEGTIEYQKL [RPT4] are 3.13 ± 0.12, 3.16 ± 0.11, 3.17 ± 0.074 and 3.57 ± 0.082.
In the same order, the values of KVAPAPFGAKSTKSNKA [RPL8B] are 2.6 ± 0.085, 2.78 ± 0.073, 2.74 ± 0.061 and 2.7 ± 0.043.
As to KVDNDLRIELQSVYNDE [SRB8], the protein stability index was 3.16 ± 0.22 (doa10∆), 3.29 ± 0.24 (pdr5∆) and 3.26 ± 0.12 (san1∆).
Take KVEIKKVNSRDDSFFNE [PRP28]: the protein stability index by setting is: (doa10∆) 3.16 ± 0.082; (pdr5∆) 3.31 ± 0.082; (san1∆) 2.71 ± 0.092; (ubr1∆) 3.38 ± 0.12.
Take KVESQETLNDTIERSLI [YCS4]: the protein stability index turned out to be 2.73 ± 0.092 (doa10∆), 2.99 ± 0.071 (pdr5∆), 2.96 ± 0.072 (san1∆) and 2.97 ± 0.057 (ubr1∆).
For KVFSLDPQYLVDDLRPE [ASC1], the protein stability index is, setting by setting: (doa10∆) 2.94 ± 0.16; (pdr5∆) 2.84 ± 0.1; (san1∆) 3.04 ± 0.09; (ubr1∆) 3.15 ± 0.078.
With KVISNPLLARKQFVVDV [RPS24A], the protein stability index reads like this: (doa10∆) 1.95 ± 0.088; (pdr5∆) 1.94 ± 0.048; (san1∆) 2.14 ± 0.076; (ubr1∆) 2.07 ± 0.05.
As to KVKILEQIDENWSKEDL [SWI3], the protein stability index came out at 3.12 ± 0.079 (doa10∆), 2.92 ± 0.091 (pdr5∆), 2.88 ± 0.097 (san1∆) and 2.89 ± 0.091 (ubr1∆).
Taken in the same sequence, the figures for KVKNQGADVTNTTQDNG [YCS4] were 3.17 ± 0.086, 3.19 ± 0.084, 3.11 ± 0.049 and 3.2 ± 0.057.
Taken in the same sequence, the figures for KVLCLAVAVGNVEMEED [RPL1A] were 1.58 ± 0.064, 1.67 ± 0.053, 1.33 ± 0.09 and 1.68 ± 0.044.
Taken in the same sequence, the figures for KVLNEISKTTLTLDPRY [RPN3] were 2.88 ± 0.085, 2.99 ± 0.055, 2.89 ± 0.05 and 3.2 ± 0.069.
Regarding KVSSASAAASESDVAKQ [RPL16B], the protein stability index runs as follows: (doa10∆) 2.93 ± 0.067; (pdr5∆) 2.79 ± 0.055; (san1∆) 2.04 ± 0.09; (ubr1∆) 2.97 ± 0.065.
Taken in the same sequence, the figures for KVTQMTPAPKISYKKGA [RPL36B] were 3.12 ± 0.13, 3.27 ± 0.11, 3.31 ± 0.061 and 3.21 ± 0.1.
Taken in the same sequence, the figures for KVVIPNLLCYYNLRSLN [RPN3] were 2.44 ± 0.19, 2.54 ± 0.081, 2.74 ± 0.13 and 2.65 ± 0.1.
In the same order, the values of KVYYFQGGNNELGTAVG [RPL30] are 2.67 ± 0.093, 2.91 ± 0.086, 2.54 ± 0.054 and 2.89 ± 0.072.

The record behind these values is the supplement of paper PMC9732359.
